Laboratory results: the supplement of paper PMC11780869

tested on: Bacillus subtilis; assay: cleaved RNA product abundance (RNA/gDNA barcode ratio) relative to median wild-type variant (ratio to wild type); higher = more accumulation of the downstream cleavage product; conditions: experiment (reporter, strain, medium): exp 8a: truncated aprE reporter, strain BJT201 with 2% xylose (RNase J1 expressed); cleavage site: glnRA (positions -5 to +31 mutated)
How it was run: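 Cleaved product abundance was measured with barcoded reporter mRNAs (truncated aprE or tetM) carrying mutagenized RNase Y cleavage-site windows in the B. subtilis chromosome. Cultures in LB at 37°C grew from OD600 0.0003 to 0.3. Gel-selected cleaved RNA was reverse transcribed and barcode-sequenced with genomic DNA barcodes, and the RNA:gDNA barcode ratio per construct was scaled to the median construct bearing the unmutated site.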

| Sequence | cleaved RNA product abundance |
| --- | --- |
| CGACATGTCCCGCTTCTTTCATTAATCCGTTAGCGACTGTTTTGCTATATACATTTAACTTTTAAGAGGAGGAAT | 0.418 |
| CGACATGTCCCGCTTCTTTCATTAATCCGTTAGCGACTGTTTTGCTATATACATTTACCTTTTAAGAGGAGGAAT | 0.385 |
| CGACATGTCCCGCTTCTTTCATTAATCCGTTAGCTACTGTTATGCTATATACATTTACCTTTTAAGAGGAGGAAT | 0.786 |
| CGACATGTCCCGCTTCTTTCATTAATCCGTTAGCTACTGTTTTGCAATATACATTTACCTTTTAAGAGGAGGAAT | 0.187 |
| CGACATGTCCCGCTTCTTTCATTAATCCGTTAGCTACTGTTTTGCTATATACATTTAACTTTTAAGAGGAGGAAT | 0.621 |
| CGACATGTCCCGCTTCTTTCATTAATCCGTTAGCTACTGTTTTGCTATATACATTTACCTTTTAAGAGGAGGAAT | 0.56 |
| CGACATGTCCCGCTTCTTTCATTAATCCGTTAGCTACTGTTTTGCTATATACATTTACGTTTTAAGAGGAGGAAT | 0.818 |
| CGACATGTCCCGCTTCTTTCATTAATCCGTTAGCTACTGTTTTGCTATATACATTTATCTTTTAAGAGGAGGAAT | 0.798 |
| CGACATGTCCCGCTTCTTTCATTAATCCGTTAGCTACTGTTTTGCTATATATATTTACCTTTTAAGAGGAGGAAT | 0.617 |
| CGACATGTCCCGCTTCTTTCATTAATCCGTTAGCTACTGTTTTGCTATATGCATTTACCTTTTAAGAGGAGGAAT | 0.368 |
| CGACATGTCCCGCTTCTTTCATTAATCCGTTAGCTACTGTTTTGCTATATTCATTTACATTTTAAGAGGAGGAAT | 0.64 |
| CGACATGTCCCGCTTCTTTCATTAATCCGTTAGCTATTGTTTTGCTATATACATTTACCTTTTAAGAGGAGGAAT | 0.432 |
| CGACATGTCCCGCTTCTTTCATTAATCCGTTAGCTGCTGTTTTGCTATATACATTTACCTTTTAAGAGGAGGAAT | 0.658 |
| CGACATGTCCCGCTTCTTTCATTAATCCGTTAGGAAATGTTTTGCTATATACATTTACCTTTTAAGAGGAGGAAT | 0.361 |
| CGACATGTCCCGCTTCTTTCATTAATCCGTTAGGAACAGTTTTGCTATATACATTTACCTTTTAAGAGGAGGAAT | 0.434 |
| CGACATGTCCCGCTTCTTTCATTAATCCGTTAGGAACTATTTTGCTATATACATTTACCTTTTAAGAGGAGGAAT | 0.437 |
| CGACATGTCCCGCTTCTTTCATTAATCCGTTAGGAACTGATTTGCTATATACATTTACCTTTTAAGAGGAGGAAT | 0.415 |
| CGACATGTCCCGCTTCTTTCATTAATCCGTTAGGAACTGTCTTGCTATATACATTTACCTTTTAAGAGGAGGAAT | 0.138 |
| CGACATGTCCCGCTTCTTTCATTAATCCGTTAGGAACTGTTTAGCTATATACATTTACCTTTTAAGAGGAGGAAT | 0.327 |
| CGACATGTCCCGCTTCTTTCATTAATCCGTTAGGAACTGTTTTGCAATATACATTTACCTTTTAAGAGGAGGAAT | 0.342 |
| CGACATGTCCCGCTTCTTTCATTAATCCGTTAGGAACTGTTTTGCGATATACATTTACCTTTTAAGAGGAGGAAT | 0.312 |
| CGACATGTCCCGCTTCTTTCATTAATCCGTTAGGAACTGTTTTGCTATAAACATTTACCTTTTAAGAGGAGGAAT | 0.289 |

| Sequence | cleaved RNA product abundance |
| --- | --- |
| CGACATGTCCCGCTTCTTTCATTAATCCGTTAGGAACTGTTTTGCTATACACATTTACCTTTTAAGAGGAGGAAT | 0.245 |
| CGACATGTCCCGCTTCTTTCATTAATCCGTTAGGAACTGTTTTGCTATATACATTTACCTTTTAAGAGGAGGAAT | 0.331 |
| CGACATGTCCCGCTTCTTTCATTAATCCGTTAGGAACTGTTTTGCTATATACATTTACTTTTTAAGAGGAGGAAT | 0.247 |
| CGACATGTCCCGCTTCTTTCATTAATCCGTTAGGAACTGTTTTGCTATATACATTTGCCTTTTAAGAGGAGGAAT | 0.376 |
| CGACATGTCCCGCTTCTTTCATTAATCCGTTAGGAACTGTTTTGCTATATAGATTTACCTTTTAAGAGGAGGAAT | 0.191 |
| CGACATGTCCCGCTTCTTTCATTAATCCGTTAGGAACTGTTTTGCTATATATATTTACCTTTTAAGAGGAGGAAT | 0.367 |
| CGACATGTCCCGCTTCTTTCATTAATCCGTTAGGAACTGTTTTTCTATATACATTTACCTTTTAAGAGGAGGAAT | 0.453 |
| CGACATGTCCCGCTTCTTTCATTAATCCGTTAGGAACTTTTTTGCTATATACATTTACCTTTTAAGAGGAGGAAT | 0.409 |
| CGACATGTCCCGCTTCTTTCATTAATCCGTTAGTAAATGTTTTGCTATATACATTTACCTTTTAAGAGGAGGAAT | 0.205 |
| CGACATGTCCCGCTTCTTTCATTAATCCGTTAGTAACTGTCTTGCTATATACATTTACCTTTTAAGAGGAGGAAT | 0.231 |
| CGACATGTCCCGCTTCTTTCATTAATCCGTTAGTAACTGTTGTGCTATATACATTTACCTTTTAAGAGGAGGAAT | 0.358 |
| CGACATGTCCCGCTTCTTTCATTAATCCGTTAGTAACTGTTTAGCTATATACATTTACCTTTTAAGAGGAGGAAT | 0.463 |
| CGACATGTCCCGCTTCTTTCATTAATCCGTTAGTAACTGTTTTACTATATACATTTACCTTTTAAGAGGAGGAAT | 1.04 |
| CGACATGTCCCGCTTCTTTCATTAATCCGTTAGTAACTGTTTTCCTATATACATTTACCTTTTAAGAGGAGGAAT | 0.44 |
| CGACATGTCCCGCTTCTTTCATTAATCCGTTAGTAACTGTTTTGATATATACATTTACCTTTTAAGAGGAGGAAT | 0.66 |
| CGACATGTCCCGCTTCTTTCATTAATCCGTTAGTAACTGTTTTGCAATATACATTTACCTTTTAAGAGGAGGAAT | 0.316 |
| CGACATGTCCCGCTTCTTTCATTAATCCGTTAGTAACTGTTTTGCGATATACATTTACCTTTTAAGAGGAGGAAT | 0.29 |
| CGACATGTCCCGCTTCTTTCATTAATCCGTTAGTAACTGTTTTGCTAAATACATTTACCTTTTAAGAGGAGGAAT | 0.496 |
| CGACATGTCCCGCTTCTTTCATTAATCCGTTAGTAACTGTTTTGCTACATACATTTACCTTTTAAGAGGAGGAAT | 0.318 |
| CGACATGTCCCGCTTCTTTCATTAATCCGTTAGTAACTGTTTTGCTATAAACATTTACCTTTTAAGAGGAGGAAT | 0.389 |
| CGACATGTCCCGCTTCTTTCATTAATCCGTTAGTAACTGTTTTGCTATAGACATTTACCTTTTAAGAGGAGGAAT | 0.536 |
| CGACATGTCCCGCTTCTTTCATTAATCCGTTAGTAACTGTTTTGCTATATACACTTACCTTTTAAGAGGAGGAAT | 0.527 |

| Sequence | cleaved RNA product abundance |
| --- | --- |
| CGACATGTCCCGCTTCTTTCATTAATCCGTTAGTAACTGTTTTGCTATATACATATACCTTTTAAGAGGAGGAAT | 0.305 |
| CGACATGTCCCGCTTCTTTCATTAATCCGTTAGTAACTGTTTTGCTATATACATTTACATTTTAAGAGGAGGAAT | 0.433 |
| CGACATGTCCCGCTTCTTTCATTAATCCGTTAGTAACTGTTTTGCTATATACATTTACCATTTAAGAGGAGGAAT | 0.33 |
| CGACATGTCCCGCTTCTTTCATTAATCCGTTAGTAACTGTTTTGCTATATACATTTACCTTTTAAGAGGAGGAAT | 0.379 |
| CGACATGTCCCGCTTCTTTCATTAATCCGTTAGTAACTGTTTTGCTATATACATTTACGTTTTAAGAGGAGGAAT | 0.581 |
| CGACATGTCCCGCTTCTTTCATTAATCCGTTAGTAACTGTTTTGCTATATACATTTACTTTTTAAGAGGAGGAAT | 0.36 |
| CGACATGTCCCGCTTCTTTCATTAATCCGTTAGTAACTGTTTTTCTATATACATTTACCTTTTAAGAGGAGGAAT | 0.688 |
| CGACATGTCCCGCTTCTTTCATTAATCCGTTAGTAACTTTTTTGCTATATACATTTACCTTTTAAGAGGAGGAAT | 0.636 |
| CGACATGTCCCGCTTCTTTCATTAATCCGTTAGTAAGTGTTTTGCTATATACATTTACCTTTTAAGAGGAGGAAT | 0.265 |
| CGACATGTCCCGCTTCTTTCATTAATCCGTTAGTAATTGTTTTGCTATATACATTTACCTTTTAAGAGGAGGAAT | 0.362 |
| CGACATGTCCCGCTTCTTTCATTAATCCGTTAGTATCTGTTTTACTATATACATTTACCTTTTAAGAGGAGGAAT | 0.917 |
| CGACATGTCCCGCTTCTTTCATTAATCCGTTAGTATCTGTTTTGCTATATACATTTACCTTTTAAGAGGAGGAAT | 0.422 |
| CGACATGTCCCGCTTCTTTCATTAATCCGTTAGTTACTGTTTTGCTATATACATTTACCTTTTAAGAGGAGGAAT | 0.365 |
| CGACATGTCCCGCTTCTTTCATTAATCCGTTATAAACTGTTTTGCTATATACATTTACCTTTTAAGAGGAGGAAT | 0.276 |
| CGACATGTCCCGCTTCTTTCATTAATCCGTTATCAAATGTTATGTTATATACATTTACCTTTTAAGAGGAGGAAT | 0.413 |
| CGACATGTCCCGCTTCTTTCATTAATCCGTTATCAAATGTTTTGCTATATACATTTACCTTTTAAGAGGAGGAAT | 0.283 |
| CGACATGTCCCGCTTCTTTCATTAATCCGTTATCAACAGTTTTGCTATATACATTTACCTTTTAAGAGGAGGAAT | 0.296 |
| CGACATGTCCCGCTTCTTTCATTAATCCGTTATCAACTATTTTGCTATATACATTTACCTTTTAAGAGGAGGAAT | 0.276 |
| CGACATGTCCCGCTTCTTTCATTAATCCGTTATCAACTCTTTTGCTATATACATTTACCTTTTAAGAGGAGGAAT | 0.252 |
| CGACATGTCCCGCTTCTTTCATTAATCCGTTATCAACTGATTTGCTATATACATTTACCTTTTAAGAGGAGGAAT | 0.286 |
| CGACATGTCCCGCTTCTTTCATTAATCCGTTATCAACTGCTTTGCTATATACATTTACCTTTTAAGAGGAGGAAT | 0.114 |
| CGACATGTCCCGCTTCTTTCATTAATCCGTTATCAACTGGTTTGCTATATACATTTACCTTTTAAGAGGAGGAAT | 0.204 |
